Reference: patent US20230346885A1 (published 2023)

What was measured:
Assay in all cases: binding, other
SLC45A2 peptide on HLA [1] = biological target: T1, SLC45A2 peptide on HLA (human)
T1 peptide: RLLGTEFQV

RLN1 peptide on HLA = biological target: T2, RLN1 peptide on HLA (human)
T2 peptide: LLLNQFSRA

SLC45A2 peptide on HLA [2] = biological target: T3, SLC45A2 peptide on HLA (human)
T3 peptide: SLYSYFQKV

SAGE1 peptide on HLA [3] = biological target: T4, SAGE1 peptide on HLA (human)
T4 peptide: GLYSTVPHNV

SLC30A8 peptide on HLA = biological target: T5, SLC30A8 peptide on HLA (human)
T5 peptide: ILAVDGVLSV

SAGE1 peptide on HLA [4] = biological target: T6, SAGE1 peptide on HLA (human)
T6 peptide: TVLPGLTYL

SAGE1 peptide on HLA [5] = biological target: T7, SAGE1 peptide on HLA (human)
T7 peptide: VLIQQLEKA

B1: TCR of SEQ ID NOs 567 and 568 (TCR, V domains shown)
Valpha: KQEVTQIPAALSVPEGENLVLNCSFTDSAIYNLQWFRQDPGKGLTSLLLIQSSQREQTSGRLNASLDKSSGRSTLYIAASQPGDSATYLCAVSGGGADGLTFGKGTHLIIQP
Vbeta: NAGVTQTPKFRILKIGQSMTLQCTQDMNHNYMYWYRQDPGMGLKLIYYSVGAGITDQGEVPNGYNVSRLNKREFSLRLESAAPSQTSVYFCASSEEGWSNSPLHFGNGTRLTVT
binding result (SLC45A2 peptide on HLA [1]): recognises

B2: TCR of SEQ ID NOs 565 and 566 (TCR, V domains shown)
Valpha: KQEVTQIPAALSVPEGENLVLNCSFTDSAIYNLQWFRQDPGKGLTSLLLIQSSQREQTSGRLNASLDKSSGRSTLYIAASQPGDSATYLCAVDKAAGNKLTFGGGTRVLVKP
Vbeta: NAGVTQTPKFQVLKTGQSMTLQCAQDMNHNYMYWYRQDPGMGLRLIHYSVGAGITDQGEVPNGYNVSRSTTEDFPLRLLSAAPSQTSVYFCASKNWGTEAFFGQGTRLTVV
binding result (SLC45A2 peptide on HLA [1]): recognises

B3: TCR of SEQ ID NOs 531 and 532 (TCR, V domains shown)
Valpha: KQEVTQIPAALSVPEGENLVLNCSFTDSAIYNLQWFRQDPGKGLTSLLLIQSSQREQTSGRLNASLDKSSGRSTLYIAASQPGDSATYLCAVLSNFGNEKLTFGTGTRLTIIP
Vbeta: NAGVTQTPKFRILKIGQSMTLQCTQDMNHNYMYWYRQDPGMGLKLIYYSVGAGITDKGEVPNGYNVSRSTTEDFPLRLLSAAPSQTSVYFCASTREAGLDYGYTFGSGTRLTVV
binding result (RLN1 peptide on HLA): recognises

B4: TCR of SEQ ID NOs 571 and 572 (TCR, V domains shown)
Valpha: KQEVTQIPAALSVPEGENLVLNCSFTDSAIYNLQWFRQDPGKGLTSLLLIQSSQREQTSGRLNASLDKSSGRSTLYIAASQPGDSATYLCAALSYNTDKLIFGTGTRLQVFP
Vbeta: NAGVTQTPKFQVLKTGQSMTLQCAQDMNHNSMYWYRQDPGMGLRLIYYSASEGTTDKGEVPNGYNVSRLNKREFSLRLESAAPSQTSVYFCASRYSPYTEAFFGQGTRLTVV
binding result (SLC45A2 peptide on HLA [2]): recognises

B5: TCR of SEQ ID NOs 535 and 536 (TCR, V domains shown)
Valpha: KQEVTQIPAALSVPEGENLVLNCSFTDSAIYNLQWFRQDPGKGLTSLLLIQSSQREQTSGRLNASLDKSSGRSTLYIAASQPGDSATYLCAVGGYQKVTFGTGTKLQVIP
Vbeta: NAGVTQTPKFRVLKTGQSMTLLCAQDMNHNYMYWYRQDPGMGLKLIYYSVGAGITDKGEVPNGYNVSRSTTEDFPLRLELAAPSQTSVYFCASRVDTLGEAFFGQGTRLTVV
binding result (SAGE1 peptide on HLA [3]): recognises

B6: TCR of SEQ ID NOs 553 and 554 (TCR, V domains shown)
Valpha: QKEVEQNSEPLSVPEGAIASLNCTYSDRGSQSFFWYRQYSGKSPELIMSIYSNGDKEDGRFTAQLNKASQYVSLLIRDSQPSDSATYLCAVNSQGGKLMFGQGTELSVKP
Vbeta: NAGVTQTPKFRVLKTGQSMTLQCAQDMNHNYMYWYRQDPGMGLRLIHYSVGEGTTAKGEVPDGYNVSRLKKQNFLLGLESAAPSQTSVYFCASSYAPWPGPYEQYVGPGTRLTVT
binding result (SLC30A8 peptide on HLA): recognises

B7: TCR of SEQ ID NOs 569 and 570 (TCR, V domains shown)
Valpha: KQEVTQIPAALSVPEGENLVLNCSFTDSAIYNLQWFRQDPGKGLTSLLLIQSSQREQTSGRLNASLDKSSGRSTLYIAASQPGDSATYLCAVRDSWGKFQFGAGTQVVVTP
Vbeta: NAGVTQTPKFRVLKTGQSMTLLCAQDMNHEYMYWYRQDPGMGLRLIHYSVGEGTTAKGEVPDGYNVSRLKKQNFLLGLESAAPSQTSVYFCASSLGQGYGLAYDEQFFGPGTRLTVL
binding result (SLC45A2 peptide on HLA [2]): recognises

B8: TCR of SEQ ID NOs 551 and 552 (TCR, V domains shown)
Valpha: KQEVTQIPAALSVPEGENLVLNCSFTDSAIYNLQWFRQDPGKGLTSLLLIQSSQREQTSGRLNASLDKSSGRSTLYIAASQPGDSATYLCAVTGNQFYFGTGTSLTVIP
Vbeta: NAGVTQTPKFRVLKTGQSMTLQCAQDMNHEYMYWYRQDPGMGLRLIHYSVGAGITDQGEVPNGYNVSRSTTEDFPLRLLSAAPSQTSVYFCASSTYPVWGGEKMFFGSGTQLSVL
binding result (SLC30A8 peptide on HLA): recognises

B9: TCR of SEQ ID NOs 563 and 564 (TCR, V domains shown)
Valpha: KQEVTQIPAALSVPEGENLVLNCSFTDSAIYNLQWFRQDPGKGLTSLLLIQSSQREQTSGRLNASLDKSSGRSTLYIAASQPGDSATYLCAVRPTEYGNKLVFGAGTILRVKS
Vbeta: NAGVTQTPKFRVLKTGQSMTLLCAQDMNHEYMYWYRQDPGMGLRLIHYSVGEGTTAKGEVPDGYNVSRLKKQNFLLGLESAAPSQTSVYFCASSNEGGGYTFGSGTRLTVV
binding result (SLC45A2 peptide on HLA [1]): recognises

B10: TCR of SEQ ID NOs 541 and 542 (TCR, V domains shown)
Valpha: KQEVTQIPAALSVPEGENLVLNCSFTDSAIYNLQWFRQDPGKGLTSLLLIQSSQREQTSGRLNASLDKSSGRSTLYIAASQPGDSATYLCAVDSWGKLQFGAGTQVVVTP
Vbeta: NAGVTQTPKFQVLKTGQSMTLQCAQDMNHEYMSWYRQDPGMGLRLIHYSVGAGITDQGEVPNGYNVSRSTTEDFPLRLLSAAPSQTSVYFCASSSLGLGDYGYTFGSGTRLTVV
binding result (SAGE1 peptide on HLA [4]): recognises

B11: TCR of SEQ ID NOs 549 and 550 (TCR, V domains shown)
Valpha: KQEVTQIPAALSVPEGENLVLNCSFTDSAIYNLQWFRQDPGKGLTSLLLIQSSQREQTSGRLNASLDKSSGRSTLYIAASQPGDSATYLCAVSNDYKLSFGAGTTVTVRA
Vbeta: NAGVTQTPKFRVLKTGQSMTLLCAQDMNHEYMYWYRQDPGMGLRLIHYSVGEGTTAKGEVPDGYNVSRLKKQNFLLGLESAAPSQTSVYFCASSYSSRIYNEQFFGPGTRLTVL
binding result (SAGE1 peptide on HLA [5]): recognises

B12: TCR of SEQ ID NOs 543 and 544 (TCR, V domains shown)
Valpha: KQEVTQIPAALSVPEGENLVLNCSFTDSAIYNLQWFRQDPGKGLTSLLLIQSSQREQTSGRLNASLDKSSGRSTLYIAASQPGDSATYLCAVGDDYKLSFGAGTTVTVRA
Vbeta: NAGVTQTPKFQVLKTGQSMTLQCAQDMNHNSMYWYRQDPGMGLRLIYYSASEGTTDKGEVPNGYNVSRLNKREFSLRLESAAPSQTSVYFCASSEGWGGRTEAFFGQGTRLTVV
binding result (SAGE1 peptide on HLA [4]): recognises

B13: TCR of SEQ ID NOs 545 and 546 (TCR, V domains shown)
Valpha: KQEVTQIPAALSVPEGENLVLNCSFTDSAIYNLQWFRQDPGKGLTSLLLIQSSQREQTSGRLNASLDKSSGRSTLYIAASQPGDSATYLCAVRDDYKLSFGAGTTVTVRA
Vbeta: NAGVTQTPKFRVLKTGQSMTLLCAQDMNHEYMYWYRQDPGMGLRLIHYSVGEGTTAKGEVPDGYNVSRLKKQNFLLGLESAAPSQTSVYFCASSYGPGQIYGYTFGSGTRLTVV
binding result (SAGE1 peptide on HLA [5]): recognises

B14: TCR of SEQ ID NOs 527 and 528 (TCR, V domains shown)
Valpha: KQEVTQIPAALSVPEGENLVLNCSFTDSAIYNLQWFRQDPGKGLTSLLLIQSSQREQTSGRLNASLDKSSGRSTLYIAASQPGDSATYLCAVRPSGSARQLTFGSGTQLTVLP
Vbeta: NAGVTQTPKFQVLKTGQSMTLQCAQDMNHEYMSWYRQDPGMGLRLIHYSVGAGITDQGEVPNGYNVSRSTTEDFPLRLLSAAPSQTSVYFCASSYGVYTEAFFGQGTRLTVV
binding result (RLN1 peptide on HLA): recognises

B15: TCR of SEQ ID NOs 573 and 574 (TCR, V domains shown)
Valpha: KQEVTQIPAALSVPEGENLVLNCSFTDSAIYNLQWFRQDPGKGLTSLLLIQSSQREQTSGRLNASLDKSSGRSTLYIAASQPGDSATYLCAVRGYSTLTFGKGTMLLVSP
Vbeta: NAGVTQTPKFQVLKTGQSMTLQCAQDMNHEYMSWYRQDPGMGLRLIHYSVGAGITDQGEVPNGYNVSRSTTEDFPLRLLSAAPSQTSVYFCASSRGQFTEAFFGQGTRLTVV
binding result (SLC45A2 peptide on HLA [2]): recognises

B16: TCR of SEQ ID NOs 537 and 538 (TCR, V domains shown)
Valpha: KQEVTQIPAALSVPEGENLVLNCSFTDSAIYNLQWFRQDPGKGLTSLLLIQSSQREQTSGRLNASLDKSSGRSTLYIAASQPGDSATYLCAVGGYDKVIFGPGTSLSVIP
Vbeta: NAGVTQTPKFQVLKTGQSMTLQCAQDMNHEYMSWYRQDPGMGLRLIHYSVGAGITDQGEVPNGYNVSRSTTEDFPLRLLSAAPSQTSVYFCASRLGQFGQAFFGQGTRLTVV
binding result (SAGE1 peptide on HLA [3]): recognises

B17: TCR of SEQ ID NOs 529 and 530 (TCR, V domains shown)
Valpha: KQEVTQIPAALSVPEGENLVLNCSFTDSAIYNLQWFRQDPGKGLTSLLLIQSSQREQTSGRLNASLDKSSGRSTLYIAASQPGDSATYLCAVRPSTDSWGKLQFGAGTQVVVTP
Vbeta: NAGVTQTPKFQVLKTGQSMTLQCAQDMNHEYMSWYRQDPGMGLRLIHYSVGAGITDQGEVPNGYNVSRSTTEDFPLRLLSAAPSQTSVYFCASSPTGYYGYTFGSGTRLTVV
binding result (RLN1 peptide on HLA): recognises

B18: TCR of SEQ ID NOs 533 and 534 (TCR, V domains shown)
Valpha: KQEVTQIPAALSVPEGENLVLNCSFTDSAIYNLQWFRQDPGKGLTSLLLIQSSQREQTSGRLNASLDKSSGRSTLYIAASQPGDSATYLCAVSGYSTLTFGKGTMLLVSP
Vbeta: NAGVTQTPKFQVLKTGQSMTLQCAQDMNHEYMSWYRQDPGMGLRLIHYSVGAGITDQGEVPNGYNVSRSTTEDFPLRLLSAAPSQTSVYFCASSEGPFSEAFFGQGTRLTVV
binding result (SAGE1 peptide on HLA [3]): recognises

B19: TCR of SEQ ID NOs 539 and 540 (TCR, V domains shown)
Valpha: KQEVTQIPAALSVPEGENLVLNCSFTDSAIYNLQWFRQDPGKGLTSLLLIQSSQREQTSGRLNASLDKSSGRSTLYIAASQPGDSATYLCAVRVTGANNLFFGTGTRLTVIP
Vbeta: NAGVTQTPKFQVLKTGQSMTLQCAQDMNHEYMSWYRQDPGMGLRLIHYSVGAGITDQGEVPNGYNVSRLNKREFSLRLESAAPSQTSVYFCASRPVGGDYTGELFFGEGSRLTVL
binding result (SAGE1 peptide on HLA [4]): recognises

B20: TCR of SEQ ID NOs 547 and 548 (TCR, V domains shown)
Valpha: KQEVTQIPAALSVPEGENLVLNCSFTDSAIYNLQWFRQDPGKGLTSLLLIQSSQREQTSGRLNASLDKSSGRSTLYIAASQPGDSATYLCAVRQGYSTLTFGKGTMLLVSP
Vbeta: NAGVTQTPKFQVLKTGQSMTLQCAQDMNHNSMYWYRQDPGMGLRLIYYSASEGTTDKGEVPNGYNVSRLNKREFSLRLESAAPSQTSVYFCASSYSYPLAVGELFFGEGSRLTVL
binding result (SAGE1 peptide on HLA [5]): recognises

B21: TCR of SEQ ID NOs 555 and 556 (TCR, V domains shown)
Valpha: KQEVTQIPAALSVPEGENLVLNCSFTDSAIYNLQWFRQDPGKGLTSLLLIQSSQREQTSGRLNASLDKSSGRSTLYIAASQPGDSATYLCAVQTGANNLFFGTGTRLTVIP
Vbeta: NAGVTQTPKFRILKIGQSMTLQCTQDMNHNYMYWYRQDPGMGLRLIHYSVGAGITDQGEVPNGYNVSRSTTEDFPLRLLSAAPSQTSVYFCASSTYPVWGGEKLFFGSGTQLSVL
binding result (SLC30A8 peptide on HLA): recognises
